pIC50, pKd: −log10 of the molar value.
Key:
HLA-B*27:05 = assay: IEDB peptide-MHC binding, purified MHC/competitive/fluorescence; ≥ and ≤ were set here for values at or beyond the usual limits of such assays; settings: source organism: hepatitis C virus genotype 1a
HLA-B*46:01 [1] = assay: IEDB peptide-MHC binding, cellular MHC/competitive/fluorescence; ≥ and ≤ were set here for values at or beyond the usual limits of such assays; settings: source organism: Human herpesvirus 4 strain B95-8
HLA-C*15:02 = assay: IEDB peptide-MHC binding, purified MHC/direct/fluorescence; filed as Kd, often an IC50 or EC50 that approximates it; ≥ and ≤ were set here for values at or beyond the usual limits of such assays
HLA-C*12:03 = assay: as above
HLA-A*68:23 = assay: IEDB peptide-MHC binding, purified MHC/competitive/fluorescence; filed as Kd, often an IC50 or EC50 that approximates it; ≥ and ≤ were set here for values at or beyond the usual limits of such assays; settings: source organism: Salmonella enterica subsp. arizonae serovar 62:z4,z23:-
HLA-A*29:02 = assay: as above; settings: source organism: Salmonella enterica subsp. arizonae serovar 62:z4,z23:-
HLA-B*40:13 = assay: as above; settings: source organism: Salmonella enterica subsp. arizonae serovar 62:z4,z23:-
HLA-C*14:02 = assay: as above
HLA-B*83:01 = assay: as above
HLA-B*15:42 = assay: as above
HLA-B*45:06 = assay: as above
HLA-A*32:15 = assay: as above; settings: source organism: Salmonella enterica subsp. arizonae serovar 62:z4,z23:-
HLA-B*07:02 = assay: IEDB peptide-MHC binding, purified MHC/direct/fluorescence; filed as Kd, often an IC50 or EC50 that approximates it; ≥ and ≤ were set here for values at or beyond the usual limits of such assays; settings: source organism: Salmonella enterica
HLA-B*51:01 = assay: as above; settings: source organism: Salmonella enterica
HLA-C*06:02 [2] = assay: as above; settings: source organism: Salmonella enterica subsp. enterica serovar Typhi str. CT18
HLA-B*15:01 = assay: as above; settings: source organism: Salmonella enterica subsp. enterica serovar Typhimurium str. LT2
HLA-B*27:20 = assay: IEDB peptide-MHC binding, purified MHC/competitive/fluorescence; filed as Kd, often an IC50 or EC50 that approximates it; ≥ and ≤ were set here for values at or beyond the usual limits of such assays; settings: source organism: Salmonella enterica subsp. enterica serovar Typhi
HLA-B*46:01 [3] = assay: as above; settings: source organism: Salmonella enterica subsp. enterica serovar Typhi
HLA-C*06:02 [4] = assay: as above; settings: source organism: Homo sapiens
HLA-B*48:01 = assay: as above; settings: source organism: Vibrio vulnificus YJ016
[5] = source organism: Salmonella enterica subsp. arizonae serovar 62:z4,z23:-
[6] = source organism: Salmonella enterica subsp. enterica serovar Typhi

How did the pIC50 (HLA-B*27:05) turn out when GGATICGKY was run?
Its pIC50 is no more than 3.12.

How did the pIC50 (HLA-B*46:01 [1]) turn out when FTYPVLEEM was run?
Its pIC50 is 5.00.

What does the source list for YTIYGAWMF?
pKd (HLA-C*15:02; [5]): 5.76; pKd (HLA-C*12:03; [5]): 5.92; pKd (HLA-A*68:23): 9.22; pKd (HLA-A*29:02): 9.22; pKd (HLA-B*40:13): 6.40; pKd (HLA-C*14:02; [5]): 6.46; pKd (HLA-B*83:01; [5]): ≤ 5.30; pKd (HLA-B*15:42; [5]): ≤ 5.30; pKd (HLA-B*45:06; [5]): ≤ 5.30; pKd (HLA-A*32:15): 7.10

What does the source list for YLRNAGAAM?
pKd (HLA-B*07:02): 8.89; pKd (HLA-C*15:02; source organism: Salmonella enterica subsp. enterica serovar Typhi str. CT18): 5.44; pKd (HLA-B*51:01): ≤ 4.70; pKd (HLA-C*06:02 [2]): 5.44; pKd (HLA-B*15:01): 7.51; pKd (HLA-B*27:20): 6.73; pKd (HLA-B*46:01 [3]): 7.26; pKd (HLA-C*14:02; [6]): 8.44; pKd (HLA-B*83:01; [6]): ≤ 5.30; pKd (HLA-B*15:42; [6]): ≤ 5.30; pKd (HLA-B*45:06; [6]): ≤ 5.30

How did the pKd (HLA-C*12:03; source organism: Homo sapiens) turn out when VMAPRTLIL was run?
Its pKd is 6.40.

And the pKd (HLA-C*14:02; source organism: Homo sapiens)?
The pKd was 6.68.

What about the pKd (HLA-C*06:02 [4]) of the same sequence?
The pKd was 5.42.

What about the pKd (HLA-B*83:01; source organism: Homo sapiens) of the same sequence?
Its pKd is no more than 5.30.

What about the pKd (HLA-B*15:42; source organism: Homo sapiens) of the same sequence?
The pKd was no more than 5.30.

And the pKd (HLA-B*45:06; source organism: Homo sapiens)?
The pKd was no more than 5.30.

How did the pKd (HLA-B*48:01) turn out when DEHPWQPML was run?
Its pKd is no more than 4.70.

From the Immune Epitope Database (IEDB)
